For the assay, the target named is Recombinant SARS-CoV-2 spike protein (SARS-CoV-2) (UniProt P0DTC2). In words: ELISA. On the technique in general: ELISA stands for enzyme-linked immunosorbent assay.

On to “Native human surfactant protein A (from UniProt Q8IWL2 21-248) (natural protein)”, for which the percent decrease of binding in 10 mM EDTA worked out at 46%.
